Reference: patent US20230287087A1 (MAX PLANCK GESELLSCHAFT ZUR F RDERUNG DER WISSENSCHAFTEN E V, published 2023)

Key:
[1] = target: Californian RBD mutant (L452R) (SARS-CoV-2, UniProt P0DTC2 319-541); experiment: BLI
[2] = target: Brazilian RBD mutant (K417T, E484K, N501Y) (SARS-CoV-2, UniProt P0DTC2 319-541); experiment: BLI
[3] = target: South African RBD mutant (K417N, E484K, N501Y) (SARS-CoV-2, UniProt P0DTC2 319-541); experiment: BLI
[4] = target: T1, SARS-CoV-2 spike receptor-binding domain (RBD), wild type (SARS-CoV-2, UniProt P0DTC2 319-541); experiment: BLI, biotinylated VHH on streptavidin sensor, RBD in solution
[5] = target: B.1.617.2/Delta RBD (40592-V08H90, Sino Biologicals) (SARS-CoV-2, UniProt P0DTC2 319-541); experiment: as above
[6] = target: T1, SARS-CoV-2 spike receptor-binding …; experiment: method not stated
[7] = target: Spike protein of patient-derived SARS-CoV-2 (D614G) (SARS-CoV-2, UniProt P0DTC2 14-1273); experiment: cell-based or functional assay

B1: Re6H06 (VHH)
VHH: QVQLVESGGGLVQPGGSLRLSCAASGVTLDYYAIGWFRQAPGKEREGVSCTSSSDGSTYYADSVKGRFTISRDNAKNTVYLQMNSLKPEDTGVYYCAVVPQTYYGGKYYSQCTANGMDYWGKGTLVTVSS
Kd [1]: 0.05 nM | Kd [2]: ≤ 0.01 nM | Kd [3]: ≤ 0.01 nM | Kd [4]: ≤ 0.01 nM | Kd [5]: ≤ 0.01 nM | Kd [6]: ≤ 0.001 nM | Lowest SARS-COV-2-neutralizing concentration [7]: 50 pM
